Laboratory results reported in FireProtDB (doi:10.1073/pnas.0911904107).

B1: Lipid A palmitoyltransferase PagP, P37001 (parent)
chain: MNVSKYVAIFSFVFIQLISVGKVFANADEWMTTFRENIAQTWQQPEHYDLYIPAITWHARFAYDKEKTDRYNERPWGGGFGLSRWDEKGNWHGLYAMAFKDSWNKWEPIAGYGWESTWRPLADENFHLGLGFTAGVTARDNWNYIPLPVLLPLASVGYGPVTFQMTYIPGTYNNGNVYFAWMRFQF

Variants of: B1
Conditions: Escherichia coli (strain K12), pH 8, 25 °C, Urea, CD, structure 1THQ, whole UniProt chain shown
[1] = Sodium phosphate 50 mM, reversible: Yes
[2] = sodium phosphate buffer, transition: 2, reversible: yes

Variant | ddG of mutation (higher = less stable) [1] [kJ/mol] | denaturant midpoint (higher = more stable) [1] [M] | unfolding free energy [1] [kJ/mol] | ddG of mutation (higher = less stable) [2] [kJ/mol] | denaturant midpoint (higher = more stable) [2] [M] | unfolding free energy [2] [kJ/mol] | denaturant m value [1] [kcal/mol/M]
M97A | 1.42 | 8.56 | 58.7 | 24.4 | 8.56 | 35.8 | –
L130A | 3.18 | 8.3 | 57 | 25.4 | 8.3 | 34.7 | –
T133A | 1.67 | 8.52 | 58.5 | 24.5 | 8.52 | 35.6 | –
D49N | 2.51 | 8.4 | 57.6 | 25 | 8.4 | 35.1 | –
R119A | 6.4 | 7.84 | 53.8 | 27.4 | 7.84 | 32.8 | –
T162A | 2.13 | 8.46 | 58 | 24.8 | 8.46 | 35.4 | –
Y112G | – | – | – | 25.7 | 8.24 | 34.5 | –
Y112F | 5.73 | 7.93 | 54.4 | 27 | 7.93 | 33.2 | –
A110G | 3.64 | 8.24 | 56.5 | – | – | – | –
S83A | 5.27 | 8.01 | 54.9 | 26.7 | 8.01 | 33.5 | –
S155A | 5.31 | 8 | 54.9 | 26.7 | 8 | 33.5 | –
F80A | 4.39 | 8.13 | 55.8 | 26.2 | 8.13 | 34 | –
Y48A | 3.81 | 8.22 | 56.4 | 25.8 | 8.22 | 34.4 | –
E115A | 2.76 | 8.37 | 57.4 | 25.1 | 8.37 | 35 | –
Q164A | 4.06 | 8.18 | 56.1 | 25.9 | 8.18 | 34.2 | –
W76A | 1.88 | 8.5 | 58.3 | 24.6 | 8.5 | 35.6 | –
W42A | – | – | – | 26 | 8.17 | 34.2 | –
Q185A | -0.753 | 8.88 | 60.9 | 23 | 8.88 | 37.2 | 1.64
M182A | 3.22 | 8.3 | 56.9 | – | – | – | –
Y178A | 2.3 | 8.43 | 57.8 | 24.9 | 8.43 | 35.3 | –
